Measurements published in the supplement of paper PMC6757056.
± gives the standard deviation of the averaged measurements.

B1: library; a variant is named by its letters at N, in order (parent)
chain: GCUGUCACCGGUGUAUUACCCUAGUGGUCGACCGGUCUGAUGAGUCUNNNNNNAGACGAAACAGC

Legend:
hypoxanthine [1] = variants of: B1; assay: normalized RNA/DNA level with ligand (relative to sTRSVctl = 100) (log10 (% of sTRSVctl)); ligand: hypoxanthine (xanthine aptamer); higher = less ribozyme self-cleavage, higher mRNA level; settings: ligand concentration (+) RNA-Seq: 5 mM, HEK293T, reporter: mCherry (pCS4076), ligand present: yes
Summary of the method: (§1)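 HEK293T cells received ligand, where used, 1 h before being transfected with 4 µg per 6-well well of library plasmids encoding reporter-linked ribozyme switches. After 72 h, RNA was extracted with EDTA and sequenced. RNA level was derived from RNA reads per DNA read, normalized to a spiked-in non-cleaving sequence or the top sequences, then scaled and log-transformed. Values were ×100 then log10, the top set was 25 sequences, and the minimum was 100 DNA reads.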

hypoxanthine [2] = variants of: B1; assay: normalized RNA/DNA level without ligand (relative to sTRSVctl = 100) (log10 (% of sTRSVctl)); ligand: hypoxanthine (xanthine aptamer); higher = less ribozyme self-cleavage, higher mRNA level; settings: HEK293T, reporter: mCherry (pCS4076), ligand present: no
Summary of the method: as §1

Variant | normalized RNA/DNA level with ligand (log10) (hypoxanthine [1]) | normalized RNA/DNA level without ligand (log10) (hypoxanthine [2])
GCUGUCACCGGUGUAUUACCCUAGUGGUCGACCGGUCUGAUGAGUCUCUUCUUAGACGAAACAGC [CUUCUU] | 2.01 ± 0.066 | 1.868 ± 0.0019
GCUGUCACCGGUGUAUUACCCUAGUGGUCGACCGGUCUGAUGAGUCUCUUCUGAGACGAAACAGC [CUUCUG] | 1.948 ± 0.013 | 1.91 ± 0.053
GCUGUCACCGGUGUAUUACCCUAGUGGUCGACCGGUCUGAUGAGUCUCUUCUCAGACGAAACAGC [CUUCUC] | 2.041 ± 0.013 | 2.03 ± 0.059
GCUGUCACCGGUGUAUUACCCUAGUGGUCGACCGGUCUGAUGAGUCUAUUGAAAGACGAAACAGC [AUUGAA] | 1.91 ± 0.047 | 1.75 ± 0.026
GCUGUCACCGGUGUAUUACCCUAGUGGUCGACCGGUCUGAUGAGUCUUUUGAUAGACGAAACAGC [UUUGAU] | 1.9 ± 0.052 | 1.7965 ± 0.0012
GCUGUCACCGGUGUAUUACCCUAGUGGUCGACCGGUCUGAUGAGUCUUUUGACAGACGAAACAGC [UUUGAC] | 1.927 ± 0.0075 | 1.84 ± 0.037
GCUGUCACCGGUGUAUUACCCUAGUGGUCGACCGGUCUGAUGAGUCUCUUGACAGACGAAACAGC [CUUGAC] | 1.923 ± 0.019 | 1.812 ± 0.0094
GCUGUCACCGGUGUAUUACCCUAGUGGUCGACCGGUCUGAUGAGUCUCUUGAGAGACGAAACAGC [CUUGAG] | 1.87 ± 0.03 | 1.72 ± 0.068
GCUGUCACCGGUGUAUUACCCUAGUGGUCGACCGGUCUGAUGAGUCUUUUGCAAGACGAAACAGC [UUUGCA] | 1.94 ± 0.039 | 1.89 ± 0.033
GCUGUCACCGGUGUAUUACCCUAGUGGUCGACCGGUCUGAUGAGUCUGUUGAAAGACGAAACAGC [GUUGAA] | 1.918 ± 0.016 | 1.744 ± 0.0083
GCUGUCACCGGUGUAUUACCCUAGUGGUCGACCGGUCUGAUGAGUCUGUUGACAGACGAAACAGC [GUUGAC] | 1.917 ± 0.015 | 1.72 ± 0.057
GCUGUCACCGGUGUAUUACCCUAGUGGUCGACCGGUCUGAUGAGUCUUUUCUCAGACGAAACAGC [UUUCUC] | 1.99 ± 0.064 | 1.963 ± 0.0086
GCUGUCACCGGUGUAUUACCCUAGUGGUCGACCGGUCUGAUGAGUCUUUUCUAAGACGAAACAGC [UUUCUA] | 1.91 ± 0.02 | 1.87 ± 0.048
GCUGUCACCGGUGUAUUACCCUAGUGGUCGACCGGUCUGAUGAGUCUUUUCUGAGACGAAACAGC [UUUCUG] | 1.942 ± 0.009 | 1.77 ± 0.026
GCUGUCACCGGUGUAUUACCCUAGUGGUCGACCGGUCUGAUGAGUCUUUUCUUAGACGAAACAGC [UUUCUU] | 1.94 ± 0.036 | 1.95 ± 0.036
GCUGUCACCGGUGUAUUACCCUAGUGGUCGACCGGUCUGAUGAGUCUAUUCUUAGACGAAACAGC [AUUCUU] | 1.94 ± 0.055 | 1.93 ± 0.023
GCUGUCACCGGUGUAUUACCCUAGUGGUCGACCGGUCUGAUGAGUCUAUUCUGAGACGAAACAGC [AUUCUG] | 1.85 ± 0.061 | 1.61 ± 0.039
GCUGUCACCGGUGUAUUACCCUAGUGGUCGACCGGUCUGAUGAGUCUGUUCUUAGACGAAACAGC [GUUCUU] | 1.95 ± 0.051 | 1.92 ± 0.034
GCUGUCACCGGUGUAUUACCCUAGUGGUCGACCGGUCUGAUGAGUCUGUUCUCAGACGAAACAGC [GUUCUC] | 1.981 ± 0.0077 | 1.95 ± 0.02
GCUGUCACCGGUGUAUUACCCUAGUGGUCGACCGGUCUGAUGAGUCUGUUCUGAGACGAAACAGC [GUUCUG] | 1.89 ± 0.058 | 1.54 ± 0.03
GCUGUCACCGGUGUAUUACCCUAGUGGUCGACCGGUCUGAUGAGUCUAUUGCAAGACGAAACAGC [AUUGCA] | 1.9 ± 0.0078 | 1.8 ± 0.026
